Measured values published in article PMC7570391, “Cyclic Di-adenosine Monophosphate Regulates Metabolism and Growth in the Oral Commensal Streptococcus mitis” (Microorganisms, 2020).

Experiments:
[1] = target: Pde2, full-length S. mitis DhhP-type phosphodiesterase (SM12261_1122) (Streptococcus mitis CCUG 31611); assay: SEC; Superose 6 Increase 10/300 GL on an ÄKTA Pure 25; SEC buffer 1x PBS pH 7.4 with 10% glycerol; apparent molecular weight from vE/v0 against gel filtration markers (12,000-200,000 Da)
[2] = system: [H][C@@]1(O)[C@]2([H])OP(=O)(O)OC[C@@]3([H])O[C@@]([H])(n4cnc5c(N)ncnc54)[C@]([H])(O)[C@]3([H])OP(=O)(O)OC[C@@]2([H])O[C@@]1([H])n1cnc2c(N)ncnc21; assay: purified protein; conditions: 1 mM MnCl2, 50 mM Tris-HCl pH 7.5, 37 °C, 2.5 μM enzyme, product pApA
Text: pApA formation, reversed-phase HPLC, Michaelis-Menten fit on Pde1_53–657

[3] = system: Nc1ncnc2c1ncn2[C@@H]1O[C@H](COP(=O)(O)O[C@H]2[C@@H](O)[C@H](n3cnc4c(N)ncnc43)O[C@@H]2COP(=O)(O)O)[C@@H](O)[C@H]1O; assay: purified protein; conditions: 1 mM MnCl2, 50 mM Tris-HCl pH 7.5, 37 °C, 5 μM enzyme, product AMP
Text: AMP formation, reversed-phase HPLC, Michaelis-Menten fit on Pde1_53–657

[4] = target: CdaA_(103–285), truncated S. mitis CdaA-type diadenylate cyclase (SM12261_1351) lacking the transmembrane helices (Streptococcus mitis CCUG 31611); assay: SEC; Superose 6 Increase 10/300 GL on an ÄKTA Pure 25; SEC buffer 1x PBS pH 7.4 with 10% glycerol; apparent molecular weight from vE/v0 against gel filtration markers (12,000-200,000 Da)
[5] = substrate: [H][C@@]1(O)[C@]2([H])OP(=O)(O)OC[C@@]3([H])O[C@@]([H])(n4cnc5c(N)ncnc54)[C@]([H])(O)[C@]3([H])OP(=O)(O)OC[C@@]2([H])O[C@@]1([H])n1cnc2c(N)ncnc21; assay: AMP formation, reversed-phase HPLC, Michaelis-Menten fit; assay type: biochemical, Streptococcus mitis; conditions: 1 mM MnCl2, 50 mM Tris-HCl pH 8.5, 37 °C, 10 μM enzyme, product AMP
Text: (§1) AMP formation, reversed-phase HPLC, Michaelis-Menten fit on Pde2

[6] = substrate: Nc1ncnc2c1ncn2[C@@H]1O[C@H](COP(=O)(O)O[C@H]2[C@@H](O)[C@H](n3cnc4c(N)ncnc43)O[C@@H]2COP(=O)(O)O)[C@@H](O)[C@H]1O; assay: as above; assay type: biochemical, Streptococcus mitis; conditions: 1 mM MnCl2, 50 mM Tris-HCl pH 8.5, 37 °C, 0.05 μM enzyme, product AMP
Text: as §1

Pde2, full-length S. mitis DhhP-type phosphodiesterase (SM12261_1122) (enzyme)
stoichiometry N [1]: 2

Pde1_53–657 (Streptococcus mitis NCTC 12261)
Km [2]: 241.3 ± 11.6 µM | Vmax [2]: 621 µM/min | kcat [2]: 4.14 ± 1.99 s⁻¹ | kcat/Km [2]: 17000 M⁻¹ s⁻¹ | Km [3]: 152.4 ± 03.6 µM | Vmax [3]: 748 µM/min | kcat [3]: 2.49 ± 0.61 s⁻¹ | kcat/Km [3]: 16400 M⁻¹ s⁻¹

CdaA_(103–285), truncated S. mitis CdaA-type diadenylate cyclase (SM12261_1351) lacking the transmembrane helices (domain or fragment)
stoichiometry N [4]: 2

B1: Pde2 (Streptococcus mitis NCTC 12261) (protein)
chain: MDICHQILEKIKEYDTIIIHRHMKPDPDALGSQVGLKALLKHHFPEKTIKAVGFDEPTLTWMAEMDLVEDSAYQGALVIVCDTANTARIDDKRYSQGDFLIKIDHHPNDDVYGDLSWVDTSSSSASEMITLFAQTTQLALSDRAAELLFAGIIGDTGRFLYPSTTERTLRLAAYLREHNFDFAALTRKMDTMSYKIAKLQGYIYDHLEVDENGAARVILSQEILKRFNVTDAETAAIVGAPGRIDSVSLWGIFVEQADGHYRVRLRSKIHPINEIAKEHDGGGHPLASGANSYSLEENEIIYQKLKNLLKN
Km [5]: 148.5 ± 34.8 µM | Vmax [5]: 46.8 µM/min | kcat [5]: 0.078 ± 0.005 s⁻¹ | kcat/Km [5]: 525 M⁻¹ s⁻¹ | Km [6]: 877 ± 312 µM | Vmax [6]: 10600 µM/min | kcat [6]: 3530 ± 623 s⁻¹ | kcat/Km [6]: 4.02e+06 M⁻¹ s⁻¹
